Data published in the nanobody polyreactivity screen of Harvey et al. (2022).

Assay: yeast display, Sf9 membrane polyspecificity reagent, FACS + sequencing; frameworks hold sequencing errors
Outline: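 Galactose induction of a Saccharomyces cerevisiae BJ5465 synthetic nanobody display library ran 36–48 hours. The cells were then stained for 1 hour at 4 °C with 10% biotinylated, detergent-solubilized Sf9 membrane reagent, pulled down on streptavidin microbeads and FACS-sorted into low and high (top ~1%) gates on expression and reagent-binding fluorescence. Labels for polyreactivity follow the gate of origin.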

Row | Sequence | polyreactivity (PSR sort gate)
1 | QVQLVESGGGLVQAGGSLRLSCAASGSTFIIYAMGWYRQEPGKEREFVATITGRGGRTYYAVSVKGRFTISRDNAKNTVYLQMNSLKPEDTAVYYCAKGLGSGQEIYGYDYGGQGTQVTVSS | high polyreactivity
2 | QVQLVESGGGLVQAGGSLRLSCAASGSTFILNAMGWYRQAPGKERELVAAISRSGGNTYYADSVKGRFTISRDIAKNTVYLQMNSLKPEDTAVYYCAATRRSHYYYWGQGTQVTVSS | high polyreactivity
3 | QVQLVESGGGLVQAGGSLRLSCAASGSTFIPNAMGWYRQAPGKERELVAAISTGGSTNYADSVKGRFTISRDNAKNTVYLQMNSLKPEDTAVYYCNDRRGYFNPGRRFYYWGQGTQVTVSS | low polyreactivity
4 | QVQLVESGGGLVQAGGSLRLSCAASGSTFIVKAMGWYRHAPGKERELVAAITEDGDTTYYADSVKGRFTISRDNAKKTVYLQMNSLKPEDTAVYYCAAETYYLDDYWGQGTQVTVSS | high polyreactivity
5 | QVQLVESGGGLVQAGGSLRLSCAASGSTFIVNAMGWYRQAPGKERELVAAIRRGTRTNYADSVKGRFTISRDNAKNTVYLQMNSLKPEDTAVYYCAVRGSYRGWYDYWGQGTQVTVSS | high polyreactivity
6 | QVQLVESGGGLVQAGGSLRLSCAASGSTFIVYAMGWYRQAPGKERELVAAISLDGGSTYYADSVKGRFTISRDNAKNTVYLQMNSLKPEDSAVYYCNADYYANSITYDSWGQGSQVTVSS | low polyreactivity
7 | QVQLVESGGGLVQAGGSLRLSCAASGSTFIWYAMGWYRQAPGKERELVAAINRSGGSTYYADSVKGRFTISRDNAKNTVYLQMNSLKPEDTAVYYCAAQGGGYRGLKYYYWGQGTQVTVSS | high polyreactivity
8 | QVQLVESGGGLVQAGGSLRLSCAASGSTFIWYARGWYRQAPGKERELVAAISRSGGSTYYADSVKGRFTISRDNAKNTVYLQMNSLKPEDTAVYYCNTYPTYQYYYWGQGTQVTVSS | high polyreactivity
9 | QVQLVESGGGLVQAGGSLRLSCAASGSTFIYYAMGWYRKAPGKEREFVAAISYRGGSTYYADSVKGRFTISRDNAKNTVYLQMNSLKPEDTAVYYCAASYRKWNDYWGQGTQVTVSS | high polyreactivity
10 | QVQLVESGGGLVQAGGSLRLSCAASGSTFIYYAMVWYRQAPGKERELVASLSRSGGSTYYADSVKGRFTISRDNAKNTVYLQMNSLKPEDTAVYYCARAYRSSFNYWGQGTQVTVSS | high polyreactivity
11 | QVQLVESGGGLVQAGGSLRLSCAASGSTFKAYAMGWYRQAPGKERELVAAITNSDGDTYYADSVKGRFTISRDNAKNTVYLLMNSLKPEDTAVYYFNADDALRQTSDYNYWGQGTQVTVSS | low polyreactivity
12 | QVQLVESGGGLVQAGGSLRLSCAASGSTFKAYAMGWYRQAPGKQRELVAAITKSGGRTYYADSVKGRFTISRDNAKNTVYLQMNSLKPEDTAVYYCAAVFRPDSSAYRYYYWGQGTQVTVSS | high polyreactivity
13 | QVQLVESGGGLVQAGGSLRLSCAASGSTFKGNTMGWYRQAPGKERELVAAISWRGGSTYYADSVKGRFTISRDNAKNTVYLQMNSMKPEDTAVYYCAAKSHWWWRGYYYLGQGTQVTVSS | high polyreactivity
14 | QVQLVESGGGLVQAGGSLRLSCAASGSTFKGYAMGWYRQAPGKERELVAAISSRTGSTYYADSVKGRFTISRDNAKNTVYLQMNSLKPEDTAVYYCAAPWFRDTRGYSLYDYWGQGTQVTVSS | high polyreactivity
15 | QVQLVESGGGLVQAGGSLRLSCAASGSTFKINALGWYIQAPGKERELVALIRASGASTYYADSVKGRFTISRDNAKKTVYLRMNILKPEDTAVYYCAATTRGYKWVGRDYDYWGQGTQVTVSS | high polyreactivity
16 | QVQLVESGGGLVQAGGSLRLSCAASGSTFKIYVMGWYRQAPGKERELVAAISWSGGRTFYADSVKGRFTISRDNAKNTVYLQMNSLKPEDTAVYYCAARWQRYRSGTGDYWGQGTQVTVSS | high polyreactivity
17 | QVQLVESGGGLVQAGGSLRLSCAASGSTFKKNAMGWYRQAPGKERELVAAISGIGTRTSYADSVKGRFTISRDNAKNTVYLQMNSLKPEDTAVYYCAARYYGFPSTLKYDYWGQGTQVTVSS | high polyreactivity
18 | QVQLVESGGGLVQAGGSLRLSCAASGSTFKKNAMGWYRQAPGKERELVAAISKRGGRTYYADSVKGRFTISRDNAKNTVYLQMNSLKPEDTAVYYCNAGQQHFDEEEYDYWGQGTQVTVSS | high polyreactivity
19 | QVQLVESGGGLVQAGGSLRLSCAASGSTFKKYAIGWYRQAPGKERELVAAITWTGGSTYYADSVKGRFTISRDNAKNTVYLQMNSLKPEDTAVYYCAAYKTYAVKYYWGQGTQVTVSS | high polyreactivity
20 | QVQLVESGGGLVQAGGSLRLSCAASGSTFKKYAMGWYRLAPGKERELVAAITGSGGRTYYADSVKGRFTISRDNAKNTVDLQMNSLKPEDTAVYYCAKLNNYGYDYWGQGTQVTVSS | high polyreactivity
21 | QVQLVESGGGLVQAGGSLRLSCAASGSTFKLYVMGLYRPAPGKERELVAAIDWSGGSTYYADSVKGRFTISRDNAKNTVYLQMNSLTPEDTAVYYCAADSPNSWRMDYWGQGTQVTVSS | low polyreactivity
22 | QVQLVESGGGLVQAGGSLRLSCAASGSTFKQYTMGWYRQATGKERELVAAINRGGTSTNYADSVKGRFTISRDNAKNTVYLQMNSLKPEDTAVYYCNAGYSWGRYYYWGQGTQVTVSS | low polyreactivity

Row | Sequence | polyreactivity (PSR sort gate)
23 | QVQLVESGGGLVQAGGSLRLSCAASGSTFKRNAMGWYRQAPGKERELVAAISSSGGRTYYADSVKGRFTISRDNAKNTVYLQMNSLKPEDTAVYYCAAGIRTSAGYDYWGQGTQVTVSS | high polyreactivity
24 | QVQLVESGGGLVQAGGSLRLSCAASGSTFKRNAMGWYRQAPGKERELVAAISWSGGSTYYADSVKGRFTISRDNAKNTVYLQMNSLKPEDTAVYYCNADHPFPQYEGGSWGQGTQVTVSS | low polyreactivity
25 | QVQLVESGGGLVQAGGSLRLSCAASGSTFKRNAMGWYRQAPGKERELVATITRRGGSTYADSVKGRFTISRDNAKNTVYLQMNSLKPEDTAVYYCARDGFSAGMDYWGQGTQVTVSS | low polyreactivity
26 | QVQLVESGGGLVQAGGSLRLSCAASGSTFKRNAMGWYRQAPGNERELVAAITDNTSTTFYADSVKGRFTISRDNAKNTVYLQMNSLKPEDTAVYYCAADHSGGSRYDYWGQGTQVTVSS | low polyreactivity
27 | QVQLVESGGGLVQAGGSLRLSCAASGSTFKRNARGWYRQAPGKERELVASISKRGGSTYYADSVKGRFTISRDNAKNTVYLQMNSLIPEDTAVYYCAKTWQNGDRNTIGSVYAYDYWGQGTQVTVSS | high polyreactivity
28 | QVQLVESGGGLVQAGGSLRLSCAASGSTFKRYAMGWYRQAPGKERELVAAITSGSSTYYADSVKGRFTISRDNAKNTVYLQMNSLKPEDTAVYYCAARRAGAKYYLYGYDYWGQGTQVTVSS | low polyreactivity
29 | QVQLVESGGGLVQAGGSLRLSCAASGSTFKRYAMGWYRQAPGKERELVASISQRGGTTYYADSVKGRFTISRDNAKNTVYLQKNSLKPEDTAVYYCAKGFGWTRTIYDYWGQGTQVTVSS | high polyreactivity
30 | QVQLVESGGGLVQAGGSLRLSCAASGSTFKSYAKGWYRQAPGKEREFVAAIRGNGARTYYADSVKGRITISRDNAKNTVYFQMNSLKPEDTAVYYCNAVRYSFSDSSVDYWGQGTQVTVSS | high polyreactivity
31 | QVQLVESGGGLVQAGGSLRLSCAASGSTFKSYAMGWYRQAPGKERELVAAISYRGGSTYYADSVKGRFTISRDNAKNTVYLQMNSLKPEDTAVYYCAAVKLYSYYYWGQGTQVTVSS | high polyreactivity
32 | QVQLVESGGGLVQAGGSLRLSCAASGSTFKSYAMGWYRQAPGKERELVAAITHRGSTYYADSVKGRFTISRDNAKNTVDLQMNSLKPEDTAVYYCNVRRIGNGRRVDYWGQGTQVTVSS | high polyreactivity
33 | QVQLVESGGGLVQAGGSLRLSCAASGSTFKSYAMGWYRQAPGKERELVAAITRGGSTNYADSVKGRFTISRDNAKNTVYLQMNSLKPEDTAVYYCAKTYRYRTMDYWGQGTQVTVSS | low polyreactivity
34 | QVQLVESGGGLVQAGGSLRLSCAASGSTFKWNAMGWYRQAPGKERELVAAISKGSVNTYYADSVKGRFTISRDNAKNTVYLQMNSLKPEDTAVYYCAADRRYPALDYRGQGTQVTVSS | high polyreactivity
35 | QVQLVESGGGLVQAGGSLRLSCAASGSTFKYYAMGWYRQAPGKERELVAAISYRGGRTYYADSVKGRFTISRDNAKNTVNLQMNSLKPEDTAVYYCAAVKPYYIQYQGSAGYDYWGQGTQVTVSS | high polyreactivity
36 | QVQLVESGGGLVQAGGSLRLSCAASGSTFKYYAMGWYRQAPGKERELVASITRTGSSTYYADSVKGRFTISRDNAKNTVYLQMNSLKPEDTAVYFCNTGPHSVWWHYGYDYWGQGTQVTVSS | high polyreactivity
37 | QVQLVESGGGLVQAGGSLRLSCAASGSTFKYYAMGWYSQAPGKERELVAAISKGATRTYYADSVKGRFTISRDTAKNTVYLQMNSLKPEDTAVYYCAADRLKFPGEYDYWGQGTQVTVSS | high polyreactivity
38 | QVQLVESGGGLVQAGGSLRLSCAASGSTFLDNAMGWYRQAPGKETELVAAITQSGSSTYYADSVKGRFTISRDNAKNTVYLQMNSLKPEDTAVYYCAADVPNISFDYWGQGTQVTVSS | low polyreactivity
39 | QVQLVESGGGLVQAGGSLRLSCAASGSTFLFYAMGWYRQAPGKEREFVAAITWSGGSTYYADSVKGRFTISRDNAKNTVYLQMNSLKPEDTAVYYCNGYYVPTTGREFYFAFYYWGQGTQVTVSS | low polyreactivity
40 | QVQLVESGGGLVQAGGSLRLSCAASGSTFLFYTMGWYRQAPGKERELVAAINSGGSTNYADSVKGRFTISRDNAKNTVYLQMNSLKPEDTAVYYCNADRTYVYKYTYSFYYWGQGTQVTVSS | low polyreactivity
41 | QVQLVESGGGLVQAGGSLRLSCAASGSTFLGNVMGWYRQAPGKERELVAAITSTGGNTYYADSVKGRFTISRDNAKNSVYLQMNSLKPEDTAVYYCAKKYVWTHNYWGQGTQVTVSS | low polyreactivity
42 | QVQLVESGGGLVQAGGSLRLSCAASGSTFLIKAMGWYRQAPGKEREVVASIRYRGATTYADSVKGRFTISRDNAKNTVYLQLKSLKPEDTAVYYCAAVHWRYQYSLRYDYWGQGTQVTVSW | high polyreactivity
43 | QVQLVESGGGLVQAGGSLRLSCAASGSTFLINVLGWYRQAPGKERELVARISWRAATTYYADSVKGRFTISRDNAKNTVYLPMYSLQPEDTAVYYCADDLYKRGFDYWGQGTQVTVSS | low polyreactivity
